Assay [1] concerns DU-145 cells. Briefly: Scattering onto immobilized ligand (SOIL) assay. It counts as cell-based, human. As to conditions: 48 hours. On the procedure:
FIGS. 2(A-E) illustrate EphA activation inhibited DU-145 cell migration. (A) Expression of c-Met is elevated in cell lines derived from more malignant prostate cancer. Total cellular proteins were immunoblotted with anti-human c-Met. An anti-tubulin blot was used as a control for protein loading. (B) In a modified Boyden chamber assay, DU-145 cells were placed in the upper chamber and allowed to migrate to the lower chamber containing indicated reagents. After 8 hours, cells were stained with crystal violet and cells remaining in the upper chamber were removed. Top panel: Cells migrated to the undersides of membrane were counted; six high power fields were counted. Results represent means±S.D. Representative fields were shown in the lower panel. (C) Ephrin-A1-Fc inhibits DU-145 cell migration when HGF/SF was uniformly presented in both sides of membranes. The experiment was carried out as described in A. (D) Inhibition of cell scattering by immobilized ephrin-A1 in a SOIL assay (Method). Ephrin-A1-Fc or control Fc was immobilized on 6-well culture dishes. Freshly confluent DU-145 cells on cover slips were transferred to the coated surfaces. Cells were stimulated with HGF/SF to induce migration off the cover slips to immobilized Fc or ephrin-A1-Fc. […] The wound healing was recorded prior to and 12 hours after the addition of Fc, ephrin-A1-Fc (1 μg/ml) and/or HGF/SF (20 ng/ml). […]

The target of the next assay is T1, EphA2 (Rattus norvegicus, UniProt D3ZBN3).
T1 construct: greatly elevated in MatLu and MatLyLu variants; endogenous in cells; host or cells: MatLyLu (Dunning R-3327 rat prostate cancer subline)
Briefly: EphA2 activation and ERK status in MatLyLu cells. It counts as cell-based. On the procedure: FIGS. 1(A-D) illustrate (A) EphA2 is the primary EphA kinase expressed on human prostate cancer cells. Cell surface proteins were labeled with membrane impermeable biotin (Method). Top panel: Saturating amount of ephrin-A1-Fc (EA1-Fc) was used to precipitate most EphA kinases. Lower panel: EphA2 was first immunodepleted from cell lysates with an EphA2-specific antibody. Saturating amount of ephrin-A1-Fc was then added to the EphA2-depleted cell lysates to precipitate other members of EphA kinases. The precipitates were subject immunoblot with HRP-labeled avidin. (B) Expression of EphA2, but not other EphA kinases and ephrin-As, is elevated in cell lines derived from more malignant prostate cancer. Total cellular proteins were immunoblotted with the indicated antibodies. (C) Immunofluorescence staining of EphA2. Human prostate cancer cells grown on cover slip were stained with anti-EphA2 antibody. Texas-Red labeled secondary was used to visualize the bound primary antibody. […] To determine the ERK activation status, total cell lysates were analyzed by immunoblot using anti-phospho ERK (p-ERK) antibody. […]
Cells cultured in 6 well plates at 70-80% confluence were stimulated with 0.5 μg/ml Fc, 1 μg/ml epnrinA1-Fc or 20 ng/ml HGF/SF or their combinations as indicated. […] For quantitative analysis, band densities were measured using KODAK 1D imagine analysis software (Eastman Kodak Company).

Assay [2] has as its system DU-145 cells. The assay is described as follows: MatriGel invasion assay. It counts as cell-based, human. To be noted: 24 hours. On the procedure:
FIG. 3 illustrates EphA activation inhibited DU-145 cell invasion. DU-145 cells were placed in the upper chamber of MatriGel-coated Transwell. Fc, ephrin-A1-Fc, HGF/SF/Fc or HGF/SF/ephrin-A1-Fc, were added in the lower chamber. After 24 hours, cells invading through MatriGel and migrated to the undersides of membrane were counted. Representative results (mean±S.D.) from three independent experiments are shown.
For invasion assay, the upper chamber was coated with 50 μg of growth factor-reduced MatriGel (BD) according to manufacturer's instructions. The same procedure as in migration assay was followed, except that the cells were allowed 24 hours to migrate to the underside of the membranes.

T1 sequence (D3ZBN3 1-977): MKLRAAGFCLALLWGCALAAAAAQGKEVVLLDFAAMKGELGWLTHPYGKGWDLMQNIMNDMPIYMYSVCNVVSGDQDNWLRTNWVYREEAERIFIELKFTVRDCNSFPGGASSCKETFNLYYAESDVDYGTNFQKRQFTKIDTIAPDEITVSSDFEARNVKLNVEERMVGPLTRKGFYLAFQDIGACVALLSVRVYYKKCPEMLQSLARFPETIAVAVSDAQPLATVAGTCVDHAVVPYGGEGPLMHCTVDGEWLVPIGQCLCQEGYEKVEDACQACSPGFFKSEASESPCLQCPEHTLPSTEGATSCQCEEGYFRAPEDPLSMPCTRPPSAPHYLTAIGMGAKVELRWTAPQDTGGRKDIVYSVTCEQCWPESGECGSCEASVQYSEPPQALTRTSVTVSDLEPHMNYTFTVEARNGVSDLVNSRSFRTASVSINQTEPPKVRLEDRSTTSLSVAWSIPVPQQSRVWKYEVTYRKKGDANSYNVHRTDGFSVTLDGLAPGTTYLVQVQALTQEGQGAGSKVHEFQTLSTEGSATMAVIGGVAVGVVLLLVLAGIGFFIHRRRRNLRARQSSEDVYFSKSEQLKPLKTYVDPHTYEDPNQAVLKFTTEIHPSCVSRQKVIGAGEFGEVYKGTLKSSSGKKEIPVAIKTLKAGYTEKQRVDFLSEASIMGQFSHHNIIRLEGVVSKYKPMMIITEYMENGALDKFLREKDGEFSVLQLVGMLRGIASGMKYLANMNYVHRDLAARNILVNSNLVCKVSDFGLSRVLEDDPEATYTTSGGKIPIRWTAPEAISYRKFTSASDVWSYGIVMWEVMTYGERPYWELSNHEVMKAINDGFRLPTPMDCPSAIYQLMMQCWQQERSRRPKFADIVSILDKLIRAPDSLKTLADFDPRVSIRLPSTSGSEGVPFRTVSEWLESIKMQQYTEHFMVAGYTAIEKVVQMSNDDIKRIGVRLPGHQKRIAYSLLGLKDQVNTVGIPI

B1: ephrin-A1-Fc: ephrin-A1 dimerized by fusion to the heavy chain of human IgG1 (protein)
chain: DRHTVFWNSSNPKFRNEDYTIHVQLNDYVDIICPHYEDHSVADAAMEQYILYLVEHEEYQLCQPQSKDQVRWQCNRPSAKHGPEKLSEKFQRFTPFTLGKEFKEGHSYYYISKPIHQHEDRCLRLKVTVSGKITHSPQAHDNPQEKRLAADDPEVRVLHSIGHS
modifications: left off: a dimerising Fc or GST
notes: ephrin-A1 dimerized by fusion to the heavy chain of human IgG1
Turning to B1, in the assay with DU-145 cells [1], the “HGF/SF-induced cell migration off cover slips” value was “significantly reduced” and the “basal cell migration off cover slips” value is “reduced basal levels of cell migration off cover slips”. Further, in the assay with EphA2, the ERK1/2 activity result is recorded as “reduced” and the “EphA2 activation, time course” value is reported as “readily occurred in two minutes”. Also, in the assay on DU-145 cells [2], the HGF/SF-induced cell invasion result is on record as “significantly reduced” and the basal cell invasion entry is given as “marginally reduced the basal cell invasion”.

Source of the values: US10434074B2, “Peptide and small molecule agonists of EPHA and uses thereof” (CASE WESTERN RESERVE UNIVERSITY, priority 2004, dated 2019).
